Molecular target: human recombinant FOXO1 (Origene #TP300477) (UniProt Q12778)
Sequence (Q12778 whole entry): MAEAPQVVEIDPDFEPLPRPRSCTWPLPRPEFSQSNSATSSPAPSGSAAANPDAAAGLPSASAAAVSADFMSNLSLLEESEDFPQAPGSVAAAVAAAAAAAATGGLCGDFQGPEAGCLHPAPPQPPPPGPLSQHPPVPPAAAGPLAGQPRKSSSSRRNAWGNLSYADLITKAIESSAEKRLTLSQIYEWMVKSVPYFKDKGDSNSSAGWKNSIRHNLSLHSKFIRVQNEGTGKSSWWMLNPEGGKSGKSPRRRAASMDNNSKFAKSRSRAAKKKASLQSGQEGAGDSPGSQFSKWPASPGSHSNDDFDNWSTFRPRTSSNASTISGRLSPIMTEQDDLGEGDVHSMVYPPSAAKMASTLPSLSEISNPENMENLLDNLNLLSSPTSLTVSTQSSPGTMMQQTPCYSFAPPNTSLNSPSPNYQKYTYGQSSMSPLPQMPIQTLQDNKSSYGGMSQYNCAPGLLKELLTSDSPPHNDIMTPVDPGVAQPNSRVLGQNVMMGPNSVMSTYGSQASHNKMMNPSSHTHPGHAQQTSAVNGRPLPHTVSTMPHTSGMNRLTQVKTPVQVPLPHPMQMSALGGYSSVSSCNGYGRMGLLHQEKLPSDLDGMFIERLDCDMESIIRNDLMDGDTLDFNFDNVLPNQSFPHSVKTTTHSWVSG

microtubule-associated Ser/Thr kinase 4 (MAST4), immunoprecipitated from lysates of neuron-differentiated SH-SY5Y cells or of human temporal lobe autopsy samples, sequence (chain, as listed by the source): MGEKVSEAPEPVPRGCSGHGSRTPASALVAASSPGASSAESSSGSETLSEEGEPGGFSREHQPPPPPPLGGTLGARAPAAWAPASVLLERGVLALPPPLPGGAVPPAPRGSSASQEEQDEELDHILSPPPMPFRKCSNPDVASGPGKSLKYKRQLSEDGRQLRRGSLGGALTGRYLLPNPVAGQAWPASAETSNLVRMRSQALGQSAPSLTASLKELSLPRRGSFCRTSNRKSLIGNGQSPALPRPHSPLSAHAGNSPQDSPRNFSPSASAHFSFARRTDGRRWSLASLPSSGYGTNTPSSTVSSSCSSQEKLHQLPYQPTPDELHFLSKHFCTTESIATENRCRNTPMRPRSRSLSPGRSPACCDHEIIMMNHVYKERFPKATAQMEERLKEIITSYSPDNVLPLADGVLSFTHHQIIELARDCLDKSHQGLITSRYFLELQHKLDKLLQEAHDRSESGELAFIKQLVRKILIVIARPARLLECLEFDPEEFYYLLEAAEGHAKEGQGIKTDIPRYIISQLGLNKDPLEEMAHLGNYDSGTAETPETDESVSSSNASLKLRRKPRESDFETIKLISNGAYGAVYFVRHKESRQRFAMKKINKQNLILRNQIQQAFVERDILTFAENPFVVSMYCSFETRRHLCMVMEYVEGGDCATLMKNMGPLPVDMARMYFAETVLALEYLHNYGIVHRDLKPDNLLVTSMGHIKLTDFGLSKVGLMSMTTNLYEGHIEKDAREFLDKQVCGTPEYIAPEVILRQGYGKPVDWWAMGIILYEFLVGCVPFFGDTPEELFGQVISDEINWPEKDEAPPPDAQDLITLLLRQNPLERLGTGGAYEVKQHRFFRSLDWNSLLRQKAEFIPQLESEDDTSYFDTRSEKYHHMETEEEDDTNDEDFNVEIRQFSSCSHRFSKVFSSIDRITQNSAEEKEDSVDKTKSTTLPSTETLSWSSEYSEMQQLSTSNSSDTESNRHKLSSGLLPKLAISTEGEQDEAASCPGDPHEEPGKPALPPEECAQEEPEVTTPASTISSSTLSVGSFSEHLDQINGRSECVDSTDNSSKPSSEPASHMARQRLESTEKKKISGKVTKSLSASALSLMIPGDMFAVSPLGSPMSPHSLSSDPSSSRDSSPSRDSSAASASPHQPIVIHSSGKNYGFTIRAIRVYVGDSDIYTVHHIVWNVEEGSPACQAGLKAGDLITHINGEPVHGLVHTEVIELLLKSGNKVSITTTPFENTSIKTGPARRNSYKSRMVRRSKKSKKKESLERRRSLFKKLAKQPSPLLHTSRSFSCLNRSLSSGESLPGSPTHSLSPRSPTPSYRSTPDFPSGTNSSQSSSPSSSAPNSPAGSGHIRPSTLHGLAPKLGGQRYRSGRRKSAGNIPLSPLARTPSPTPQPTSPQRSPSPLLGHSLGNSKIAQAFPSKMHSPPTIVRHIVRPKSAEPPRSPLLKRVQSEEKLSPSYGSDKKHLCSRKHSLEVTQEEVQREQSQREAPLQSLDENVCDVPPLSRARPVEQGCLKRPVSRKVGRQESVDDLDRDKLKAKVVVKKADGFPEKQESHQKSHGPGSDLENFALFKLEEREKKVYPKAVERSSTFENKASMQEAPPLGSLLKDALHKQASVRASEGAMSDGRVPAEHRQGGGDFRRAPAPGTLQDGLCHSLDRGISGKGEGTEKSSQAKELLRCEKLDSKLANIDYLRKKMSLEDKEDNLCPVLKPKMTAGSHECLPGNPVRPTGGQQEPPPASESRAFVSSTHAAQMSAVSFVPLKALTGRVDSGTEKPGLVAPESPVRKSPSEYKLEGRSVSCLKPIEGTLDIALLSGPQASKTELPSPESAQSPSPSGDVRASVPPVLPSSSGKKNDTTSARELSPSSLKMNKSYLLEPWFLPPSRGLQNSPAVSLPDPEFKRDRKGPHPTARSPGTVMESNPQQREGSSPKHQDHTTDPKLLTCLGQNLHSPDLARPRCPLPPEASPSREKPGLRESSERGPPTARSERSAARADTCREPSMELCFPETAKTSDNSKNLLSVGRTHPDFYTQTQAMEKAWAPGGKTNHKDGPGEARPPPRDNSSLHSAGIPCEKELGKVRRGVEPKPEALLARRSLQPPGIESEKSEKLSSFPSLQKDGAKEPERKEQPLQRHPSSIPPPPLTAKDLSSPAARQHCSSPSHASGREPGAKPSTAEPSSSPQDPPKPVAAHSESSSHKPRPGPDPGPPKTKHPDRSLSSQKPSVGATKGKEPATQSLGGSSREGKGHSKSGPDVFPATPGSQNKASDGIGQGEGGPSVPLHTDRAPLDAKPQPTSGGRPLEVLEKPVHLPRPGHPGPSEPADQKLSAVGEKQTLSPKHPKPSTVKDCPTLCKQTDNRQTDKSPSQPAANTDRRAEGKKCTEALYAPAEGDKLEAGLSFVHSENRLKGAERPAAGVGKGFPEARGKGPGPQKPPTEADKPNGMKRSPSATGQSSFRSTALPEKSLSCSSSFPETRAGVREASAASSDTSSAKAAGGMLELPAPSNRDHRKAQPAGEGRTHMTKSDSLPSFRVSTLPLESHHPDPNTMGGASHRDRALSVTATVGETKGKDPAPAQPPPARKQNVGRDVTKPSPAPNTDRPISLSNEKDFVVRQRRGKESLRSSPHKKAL

Substance	FOXO1 phosphorylation in an in vitro kinase assay with immunoprecipitated MAST4 mutant	FOXO1 phosphorylation (pSer-FOXO1) in an in vitro kinase assay with immunoprecipitated MAST4 and recombinant FOXO1
MAST4E682A, putative kinase-null MAST4 mutant	Immunoprecipitates of MAST4E682A did not phosphorylate FOXO1 (not shown)	
microtubule-associated Ser/Thr kinase 4 (MAST4), immunoprecipitated from lysates of neuron-differentiated SH-SY5Y cells or of human temporal lobe autopsy samples		Increased FOXO1 phosphorylation was observed in MAST4 immunoprecipitates from cells treated with 5 µM but not 50 µM 27OHC
